*1 amine or outer side, *2 acyl side, *3 side chain or, on linkers, in order; H or OH if unused. [ ]: non-standard residue; d: D form. TyrEtNAc = L-tyrosine O-ethyl acetamide, (S)-3-(4-(2-acetamidoethoxy)phenyl)-2-aminopropanoic acid, CC(=O)NCCOc1ccc(C[C@H](N[*:1])C(=O)[*:2])cc1; Pro(trans-4-NH2) = O=C([C@@H]1C[C@@H](N[*:3])CN1[*:1])[*:2]; Bip(4'-COOH) = N[C@@H](Cc1ccc(-c2ccc(C(=O)O)cc2)cc1)C(=O)O; 1Nal(3S-Me) = C[C@@H](c1cccc2ccccc12)[C@H](N)C(=O)O; Ala(indolin-1-yl) = N[C@@H](CN1CCc2ccccc21)C(=O)O; Phe(4-COOH) = N[C@@H](Cc1ccc(C(=O)O)cc1)C(=O)O; h3Pal(5-CN) = N#Cc1cncc(CC[C@H](N)C(=O)O)c1; 1Nal = N[C@@H](Cc1cccc2ccccc12)C(=O)O; hTyr = N[C@@H](CCc1ccc(O)cc1)C(=O)O; dDab = NCC[C@@H](N)C(=O)O; Orn = NCCC[C@H](N)C(=O)O; dNMeA = CN[C@H](C)C(=O)O; Dab = NCC[C@H](N)C(=O)O; Nva = CCC[C@H](N)C(=O)O; Dap = NC[C@H](N)C(=O)O; Aib = CC(C)(N)C(=O)O
B1: SEQ ID NO: 98 (peptide)
peptide: cyclo([TyrEtNAc]W[Phe(4-COOH)]G[Pro(trans-4-NH2)][1Nal(3S-Me)]D[dNMeA]G[Bip(4'-COOH)][1Nal][Nva][dA]A)
SMILES: CCC[C@@H]1NC(=O)[C@H](Cc2cccc3ccccc23)NC(=O)[C@H](Cc2ccc(-c3ccc(C(=O)O)cc3)cc2)NC(=O)CNC(=O)[C@@H](C)N(C)C(=O)[C@H](CC(=O)O)NC(=O)[C@H]([C@@H](C)c2cccc3ccccc23)NC(=O)[C@@H]2C[C@@H](N)CN2C(=O)CNC(=O)[C@H](Cc2ccc(C(=O)O)cc2)NC(=O)[C@H](Cc2c[nH]c3ccccc23)NC(=O)[C@H](Cc2ccc(OCCNC(C)=O)cc2)NC(=O)[C@H](C)NC(=O)[C@@H](C)NC1=O
B2: SEQ ID NO: 96 (peptide)
peptide: cyclo([TyrEtNAc]W[Phe(4-COOH)]G[Pro(trans-4-NH2)][1Nal(3S-Me)]D[dNMeA]G[Bip(4'-COOH)][1Nal]L[Aib][hTyr])
SMILES: CC(=O)NCCOc1ccc(C[C@@H]2NC(=O)[C@H](CCc3ccc(O)cc3)NC(=O)C(C)(C)NC(=O)[C@H](CC(C)C)NC(=O)[C@H](Cc3cccc4ccccc34)NC(=O)[C@H](Cc3ccc(-c4ccc(C(=O)O)cc4)cc3)NC(=O)CNC(=O)[C@@H](C)N(C)C(=O)[C@H](CC(=O)O)NC(=O)[C@H]([C@@H](C)c3cccc4ccccc34)NC(=O)[C@@H]3C[C@@H](N)CN3C(=O)CNC(=O)[C@H](Cc3ccc(C(=O)O)cc3)NC(=O)[C@H](Cc3c[nH]c4ccccc34)NC2=O)cc1
B3: SEQ ID NO: 97 (peptide)
peptide: cyclo([TyrEtNAc]W[Phe(4-COOH)]G[Pro(trans-4-NH2)][1Nal(3S-Me)]D[dNMeA]G[Bip(4'-COOH)][1Nal]L[dA]A)
SMILES: CC(=O)NCCOc1ccc(C[C@@H]2NC(=O)[C@H](C)NC(=O)[C@@H](C)NC(=O)[C@H](CC(C)C)NC(=O)[C@H](Cc3cccc4ccccc34)NC(=O)[C@H](Cc3ccc(-c4ccc(C(=O)O)cc4)cc3)NC(=O)CNC(=O)[C@@H](C)N(C)C(=O)[C@H](CC(=O)O)NC(=O)[C@H]([C@@H](C)c3cccc4ccccc34)NC(=O)[C@@H]3C[C@@H](N)CN3C(=O)CNC(=O)[C@H](Cc3ccc(C(=O)O)cc3)NC(=O)[C@H](Cc3c[nH]c4ccccc34)NC2=O)cc1
B4: SEQ ID NO: 94 (peptide)
peptide: cyclo([TyrEtNAc]W[Phe(4-COOH)]G[Pro(trans-4-NH2)][1Nal(3S-Me)]D[dNMeA]G[Bip(4'-COOH)][1Nal][Dap][Aib][h3Pal(5-CN)])
SMILES: CC(=O)NCCOc1ccc(C[C@@H]2NC(=O)[C@H](CCc3cncc(C#N)c3)NC(=O)C(C)(C)NC(=O)[C@H](CN)NC(=O)[C@H](Cc3cccc4ccccc34)NC(=O)[C@H](Cc3ccc(-c4ccc(C(=O)O)cc4)cc3)NC(=O)CNC(=O)[C@@H](C)N(C)C(=O)[C@H](CC(=O)O)NC(=O)[C@H]([C@@H](C)c3cccc4ccccc34)NC(=O)[C@@H]3C[C@@H](N)CN3C(=O)CNC(=O)[C@H](Cc3ccc(C(=O)O)cc3)NC(=O)[C@H](Cc3c[nH]c4ccccc34)NC2=O)cc1
B5: SEQ ID NO: 99 (peptide)
peptide: cyclo([TyrEtNAc]W[Phe(4-COOH)]G[Pro(trans-4-NH2)][1Nal(3S-Me)]D[dNMeA]G[Bip(4'-COOH)][1Nal][Orn][Aib][hTyr])
SMILES: CC(=O)NCCOc1ccc(C[C@@H]2NC(=O)[C@H](CCc3ccc(O)cc3)NC(=O)C(C)(C)NC(=O)[C@H](CCCN)NC(=O)[C@H](Cc3cccc4ccccc34)NC(=O)[C@H](Cc3ccc(-c4ccc(C(=O)O)cc4)cc3)NC(=O)CNC(=O)[C@@H](C)N(C)C(=O)[C@H](CC(=O)O)NC(=O)[C@H]([C@@H](C)c3cccc4ccccc34)NC(=O)[C@@H]3C[C@@H](N)CN3C(=O)CNC(=O)[C@H](Cc3ccc(C(=O)O)cc3)NC(=O)[C@H](Cc3c[nH]c4ccccc34)NC2=O)cc1
B6: SEQ ID NO: 91 (peptide)
peptide: cyclo([TyrEtNAc]W[Phe(4-COOH)]G[Pro(trans-4-NH2)][1Nal(3S-Me)]D[dNMeA]G[Bip(4'-COOH)][Ala(indolin-1-yl)]G[dDab][h3Pal(5-CN)])
SMILES: CC(=O)NCCOc1ccc(C[C@@H]2NC(=O)[C@H](CCc3cncc(C#N)c3)NC(=O)[C@@H](CCN)NC(=O)CNC(=O)[C@H](CN3CCc4ccccc43)NC(=O)[C@H](Cc3ccc(-c4ccc(C(=O)O)cc4)cc3)NC(=O)CNC(=O)[C@@H](C)N(C)C(=O)[C@H](CC(=O)O)NC(=O)[C@H]([C@@H](C)c3cccc4ccccc34)NC(=O)[C@@H]3C[C@@H](N)CN3C(=O)CNC(=O)[C@H](Cc3ccc(C(=O)O)cc3)NC(=O)[C@H](Cc3c[nH]c4ccccc34)NC2=O)cc1
B7: SEQ ID NO: 95 (peptide)
peptide: cyclo([TyrEtNAc]W[Phe(4-COOH)]G[Pro(trans-4-NH2)][1Nal(3S-Me)]D[dNMeA]G[Bip(4'-COOH)][1Nal]L[Aib]G)
SMILES: CC(=O)NCCOc1ccc(C[C@@H]2NC(=O)CNC(=O)C(C)(C)NC(=O)[C@H](CC(C)C)NC(=O)[C@H](Cc3cccc4ccccc34)NC(=O)[C@H](Cc3ccc(-c4ccc(C(=O)O)cc4)cc3)NC(=O)CNC(=O)[C@@H](C)N(C)C(=O)[C@H](CC(=O)O)NC(=O)[C@H]([C@@H](C)c3cccc4ccccc34)NC(=O)[C@@H]3C[C@@H](N)CN3C(=O)CNC(=O)[C@H](Cc3ccc(C(=O)O)cc3)NC(=O)[C@H](Cc3c[nH]c4ccccc34)NC2=O)cc1
B8: SEQ ID NO: 93 (peptide)
peptide: cyclo([TyrEtNAc]W[Phe(4-COOH)]G[Pro(trans-4-NH2)][1Nal(3S-Me)]D[dNMeA]G[Bip(4'-COOH)][1Nal][Dab][Aib][hTyr])
SMILES: CC(=O)NCCOc1ccc(C[C@@H]2NC(=O)[C@H](CCc3ccc(O)cc3)NC(=O)C(C)(C)NC(=O)[C@H](CCN)NC(=O)[C@H](Cc3cccc4ccccc34)NC(=O)[C@H](Cc3ccc(-c4ccc(C(=O)O)cc4)cc3)NC(=O)CNC(=O)[C@@H](C)N(C)C(=O)[C@H](CC(=O)O)NC(=O)[C@H]([C@@H](C)c3cccc4ccccc34)NC(=O)[C@@H]3C[C@@H](N)CN3C(=O)CNC(=O)[C@H](Cc3ccc(C(=O)O)cc3)NC(=O)[C@H](Cc3c[nH]c4ccccc34)NC2=O)cc1
B9: SEQ ID NO: 92 (peptide)
peptide: cyclo([TyrEtNAc]W[Phe(4-COOH)]G[Pro(trans-4-NH2)][1Nal(3S-Me)]D[dNMeA]G[Bip(4'-COOH)][1Nal][Dab][Aib]G)
SMILES: CC(=O)NCCOc1ccc(C[C@@H]2NC(=O)CNC(=O)C(C)(C)NC(=O)[C@H](CCN)NC(=O)[C@H](Cc3cccc4ccccc34)NC(=O)[C@H](Cc3ccc(-c4ccc(C(=O)O)cc4)cc3)NC(=O)CNC(=O)[C@@H](C)N(C)C(=O)[C@H](CC(=O)O)NC(=O)[C@H]([C@@H](C)c3cccc4ccccc34)NC(=O)[C@@H]3C[C@@H](N)CN3C(=O)CNC(=O)[C@H](Cc3ccc(C(=O)O)cc3)NC(=O)[C@H](Cc3c[nH]c4ccccc34)NC2=O)cc1

target: Recombinant human IL-1β (BioLegend 579404) (human, UniProt P01584 117-269); assay: cell-based or functional assay

Row | MRC5 IC50 | Binder
1 | 494 pM | B1
2 | 464 pM | B2
3 | 294 pM | B3
4 | 63.9 pM | B4
5 | 256 pM | B5
6 | 23.4 pM | B6
7 | 422 pM | B7
8 | 120 pM | B8
9 | 457 pM | B9

Source: patent US20230406885A1, “CYCLIC PEPTIDES FOR TRAPPING INTERLEUKIN-1 BETA” (MERCK SHARP & DOHME LLC, priority 2022, published 2023)
